{"source": "patent US20230139516", "proteins": {"B1": {"name": "GST-MKK7 (protein)", "chain": "MAASSLEQKLSRLEAKLKQENREARRRIDLNLDISPQRPRPTLQLPLANDGGSRSPSSESSPQHPTPPARPRHMLGLPSTLFTPRSMESIEIDQKLQEIMKQTGYLTIGGQRYQAEINDLENLGEMGSGTCGQVWKMRFRKTGHVIAVKQMRRSGNKEENKRILMDLDVVLKSHDCPYIVQCFGTFITNTDVFIAMELMGTCAEKLKKRMQGPIPERILGKMTVAIVKALYYLKEKHGVIHRDVKPSNILLDERGQIKLCDFGISGRLVDSKAKTRSAGCAAYMAPERIDPPDPTKPDYDIRADVWSLGISLVELATGQFPYKNCKTDFEVLTKVLQEEPPLLPGHMGFSGDFQSFVKDCLTKDHRKRPKYNKLLEHSFIKRYETLEVDVASWFKDVMAKTESPRTSGVLSQPHLPFFR"}}, "molecular_target": "6×His-c-Myc, P01106", "sequence (P01106 16-454)": "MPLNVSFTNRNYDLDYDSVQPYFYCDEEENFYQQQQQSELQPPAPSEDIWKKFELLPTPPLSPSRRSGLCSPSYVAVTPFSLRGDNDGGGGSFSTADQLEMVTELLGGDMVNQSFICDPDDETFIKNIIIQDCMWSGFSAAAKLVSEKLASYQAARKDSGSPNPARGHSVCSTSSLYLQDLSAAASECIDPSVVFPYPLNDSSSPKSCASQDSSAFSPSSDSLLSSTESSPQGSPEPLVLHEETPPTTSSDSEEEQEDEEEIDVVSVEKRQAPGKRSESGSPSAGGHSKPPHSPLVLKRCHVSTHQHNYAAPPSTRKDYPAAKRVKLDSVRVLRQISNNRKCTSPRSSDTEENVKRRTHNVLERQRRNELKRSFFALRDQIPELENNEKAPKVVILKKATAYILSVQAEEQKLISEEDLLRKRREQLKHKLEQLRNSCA"}
{"protein": "B1", "values": [{"measurement": "in vitro kinase assay, immunoblot for p-c-Myc-Ser62", "result": "recombinant MKK7 could directly phosphorylate c-Myc-Ser62"}]}
